# According to publication PMC9907207 (Nature Communications, 2023):
# Biological target: T1, D614G VFLIP spike trimer (SARS-CoV-2, ancestral with D614G, VFLIP …, stabilised)
# T1 construct: also called stabilized D614G ancestral trimeric spike ("VFLIP"); trimeric spike
# Experiment: cryo-EM structure
# Conditions: both partners purified
row,Binder,stoichiometry N
1,"GAR03 Fab (Fab, V domains shown, also called GAR03 antibody Fab; source: ExpiCHO, purified (Talon resin, S200 SEC)) VH: QVQLVQSGAEVKKPGASVKVSCKASGYTFSSYDINWVRQAPGQGLEWMGWMSPNSGNTGYAQKFQGRVTMTRSTSMSTAYMELSSLRSEDTAVYFCARMSSSLTNYLDYWGQGTLVTVSS VL: SYVLTQPPSVAVAPGQTARIRCGENDIGSKNVHWYQQKSGQAPVLVVYDDSDRPSGIPERFSGSNSGNTATLTISRVEAGDEADYYCQVWDSTGDHPDVVFGGGTKLTVL",1 Fab per spike trimer
2,"GAR05 Fab (Fab, V domains shown, also called GAR05 Fab fragment; source: ExpiCHO, purified (Talon resin, S200 SEC)) VH: EVQLVQSGGDLVQPGGSLRLSCAVSGFTVSRNYMTWVRQAPGRGLEWVSLIYPGGSAFYADSVKGRFTISRDNSKNTLYLQMNSLRVEDTAVYYCARDPVSTGHYHDSDYWGQGTLVTVSS VL: DIQMTQSPSALSASVGDRVTITCQASQDINKFLNWYQQKPGKAPKLLIYDASNLETGVPSRFSGGGSGTDFTFTISSLQPEDIATYYCHQYDNLPRTFGQGTKVELK",3 Fabs per spike trimer
